Measurements as given in PMC7327492 (2020).

B1: His-tagged 2x(LxxIxE) B56 inhibitor (designed binder)
chain: TGSTGSTGSTGSTGSLPRSSTLPTIHEEEELSLCTGSTGSTGSTGSTGSLPRSSTLPTIHEEEELSLC
B2: His-tagged 4x(LxxIxE) B56 inhibitor (designed binder)
chain: TGSTGSTGSTGSTGSLPRSSTLPTIHEEEELSLCTGSTGSTGSTGSTGSLPRSSTLPTIHEEEELSLCTGSTGSTGSTGSTGSLPRSSTLPTIHEEEELSLCTGSTGSTGSTGSTGSLPRSSTLPTIHEEEELSLC

Target: Recombinant B56α (UniProt Q15172 1-486)
Test: ITC

Chain of Recombinant B56α (Q15172 whole entry): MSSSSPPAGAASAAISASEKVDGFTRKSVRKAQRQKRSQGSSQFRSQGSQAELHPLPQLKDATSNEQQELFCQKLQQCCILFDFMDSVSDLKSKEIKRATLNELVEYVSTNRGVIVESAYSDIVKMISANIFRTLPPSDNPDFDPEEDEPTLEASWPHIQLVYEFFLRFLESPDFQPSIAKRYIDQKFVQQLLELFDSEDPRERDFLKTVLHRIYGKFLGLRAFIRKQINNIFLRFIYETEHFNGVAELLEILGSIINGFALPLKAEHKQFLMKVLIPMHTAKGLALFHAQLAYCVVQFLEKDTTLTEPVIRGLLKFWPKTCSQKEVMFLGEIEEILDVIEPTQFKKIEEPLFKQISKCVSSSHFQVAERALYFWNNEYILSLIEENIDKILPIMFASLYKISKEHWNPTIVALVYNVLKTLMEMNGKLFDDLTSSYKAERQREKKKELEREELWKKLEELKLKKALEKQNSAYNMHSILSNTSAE

| Binder | Kd |
| --- | --- |
| B1 | 200 nM |
| B2 | 100 nM |
| TGSTGSTGSTGSTGSLPRSSTLPTIHEEEELSLC (designed binder) [His-tagged 1x(LxxIxE) B56 inhibitor] | 1300 nM |
